One test deals with T1, DgpA/B/C (human intestinal bacterium PUE, UniProt A0A3Q9WUX0+A0A3Q9WWX8+A0A3Q9WXL1).
T1 sequence (A0A3Q9WWX8 1-367): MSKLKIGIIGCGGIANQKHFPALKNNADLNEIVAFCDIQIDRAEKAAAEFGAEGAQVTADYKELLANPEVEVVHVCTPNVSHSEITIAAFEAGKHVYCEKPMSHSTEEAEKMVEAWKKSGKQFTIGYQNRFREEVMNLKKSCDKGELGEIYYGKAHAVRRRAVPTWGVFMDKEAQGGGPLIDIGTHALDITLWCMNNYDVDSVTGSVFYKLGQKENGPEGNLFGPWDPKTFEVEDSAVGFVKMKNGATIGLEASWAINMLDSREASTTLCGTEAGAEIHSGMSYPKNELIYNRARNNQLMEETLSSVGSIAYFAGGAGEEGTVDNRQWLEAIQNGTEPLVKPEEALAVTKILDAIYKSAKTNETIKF
T1 sequence (A0A3Q9WXL1 1-324): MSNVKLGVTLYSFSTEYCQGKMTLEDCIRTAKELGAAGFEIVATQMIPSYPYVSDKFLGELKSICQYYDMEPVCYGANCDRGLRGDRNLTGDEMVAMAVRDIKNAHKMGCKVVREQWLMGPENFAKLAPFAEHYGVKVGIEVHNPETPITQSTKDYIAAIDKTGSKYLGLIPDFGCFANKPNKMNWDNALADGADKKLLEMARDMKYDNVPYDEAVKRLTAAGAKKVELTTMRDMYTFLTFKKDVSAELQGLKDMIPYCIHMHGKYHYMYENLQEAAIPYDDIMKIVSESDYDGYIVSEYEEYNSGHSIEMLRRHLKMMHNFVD
T1 sequence (A0A3Q9WUX0 1-142): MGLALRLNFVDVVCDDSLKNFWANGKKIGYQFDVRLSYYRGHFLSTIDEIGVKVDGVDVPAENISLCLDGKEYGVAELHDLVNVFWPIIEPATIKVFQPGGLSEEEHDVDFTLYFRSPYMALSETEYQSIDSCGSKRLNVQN
Kind of test: inhibition of puerarin cleavage, HPLC. It is filed as biochemical. To be noted: proposed competitive with puerarin at DgpA pocket; substrate puerarin.

Test [1] has as its target DgpA (human intestinal bacterium PUE). In words: SEC. (In general: Size exclusion chromatography separates by hydrodynamic size, large species first.)
For test [2] the target is unchanged. Kind of test: native gel or EMSA. Background: In EMSA bound probe runs differently from free probe, usually more slowly.

Regarding `OC[C@H]1OC(O)[C@H](O)[C@@H](O)[C@@H]1O` (stereo partly drawn) [glucose], at DgpA/B/C, the inhibition ratio result was “cleaving activity of DgpA/B/C was significantly attenuated proportional to glucose concentration”.

One may read the stoichiometry N as the number of molecules, sites or subunits per partner or assembly. For DgpA (enzyme), the stoichiometry N in test [1] and in test [2] was 6 in each case.

Source of the values: PMC9939296 (Acta Pharmaceutica Sinica. B, 2022).
